Assay results published in article PMC5454376, “Molecular mechanism of Gαi activation by non-GPCR proteins with a Gα-Binding and Activating motif” (Nature Communications, 2017).

Columns and labels:
[1] = test system: Gαi3-GDP; test: NMR perturbation of Gαi3-GDP backbone amide signals; assay type: binding, human; conditions: 30 °C, pH 7.0, TROSY
Method: Full-length human Gαi3 (UNIPROT entry P08754) cloned in a pET24d(+) plasmid (a generous gift from Ichio Shimada, University of Tokyo) was used to purify the protein used in NMR experiments. For this, protein expression was induced in BL21 Rosetta (Life Technologies) cell cultures with 1 mM IPTG for 16 h at 23 °C in a modified M9 minimal medium containing 1 g l^−1 15N-NH4Cl, 2 g l^−1 2H-^13C-glucose and 1 g l^−1 of ^2H-^13C-^15N Celtone base powder in ^2H2O with 30 mg l^−1 kanamycin and 34 mg l^−1 chloramphenicol. The pelleted cells were lysed by sonication in 50 mM Tris, 200 mM NaCl, 100 mM KCl and 1 mM DTT at pH 8.0, and the supernatant was loaded on a Ni^2+-loaded His-Trap FF column. […]
All NMR data were measured on a Bruker Avance III 800 MHz (18.8 T) spectrometer equipped with a cryogenically cooled triple resonance z-gradient probe, processed with Topspin (Bruker) and analysed with Sparky. […] Gαi3 spectra were recorded at 30 °C on ^2H-^13C-^15N–Gαi3 samples with a threefold molar excess of GDP in 10 mM HEPES (pH 7.0) with 10 mM MgCl2, 5 mm DTT, 0.01% NaN3 and 5% ^2H2O. […] The assignment of Gαi3 resonances in the presence of a fivefold molar excess of GIV fragment 1,671–1,696 was achieved from the joint analysis of an HNCO and ^1H–^15N TROSY spectra recorded along a titration (at molar ratios 1:0, 1:0.2,1:0.5, 1:1, 1:2 and 1:5). […]

[2] = Circular dichroism and thermal denaturation of GIV-CT; assay type: physicochemical
Method: Circular dichroism measurements were performed on a Jasco J-810 spectropolarimeter (JASCO, Tokyo, Japan). The circular dichroism spectrum was recorded on a GIV-CT protein sample 8.4 μM in PBS (pH 7.0) with 0.2 mM DTT in a 0.2 cm path length quartz cuvette at 25 °C. The thermal denaturation curve from 5 to 95 °C was recorded on the same protein sample and cuvette by increasing temperature at a rate of 1 °C min^−1 and measuring the change in ellipticity at 222 nm.

[3] = test system: Gpa1(1–41)-human Gαi3 (36–354) in S. cerevisiae; test: G-protein activation in yeast (Fus3 phosphorylation); assay type: cell-based; conditions: strain MMY11, ppFus3 immunoblot
Excerpt: G-protein activation assay in yeast
The native G-protein-dependent pheromone response pathway is similarly modified in both strains: the pheromone-activated GPCR (Ste2 or Ste3), endogenous Gα-subunit (Gpa1) and the cell cycle arrest-inducing protein far1 are deleted. In MMY11, the G-protein inhibitor Sst2 is also deleted. Both strains were transformed with a centromeric plasmid (CEN TRP) encoding a chimeric yeast Gpa1(1–41)-human Gαi3 (36–354) protein under the control of the endogenous Gpa1 promoter[68] (courtesy of Mary Cismowski, Nationwide Children's Hospital) using the lithium acetate method. […] Individual colonies were inoculated into 3 ml of SDGalactose-Trp-Ura and incubated overnight at 30 °C to induce the expression of the proteins of interest under the control of the galactose-inducible promoter of pYES2. This starting culture was used to inoculate 20 ml of SDGalactose-Trp-Ura at 0.3 OD600. Exponentially growing cells (∼0.7–0.8 OD600, 4–5 h) were pelleted to prepare samples for immunoblotting (see below). […]
Yeast protein samples for immunoblotting were prepared by acid lysis and precipitation followed by neutralization and solubilization. […] Proteins (∼15–20 μl per lane) were separated by SDS–PAGE, blocked in PBS supplemented with 5% BSA and analysed by sequential incubation with primary and secondary antibodies. […]

B1: GIV-CT: His-tagged human GIV residues 1,660–1,870 (protein)
chain: SETLESRHHKIKTGSPGSEVVTLQQFLEESNKLTSVQIKSSSQENLLDEVMKSLSVSSDFLGKDKPVSCGLARSVSGKTPGDFYDRRTTKPEFLRPGPRKTEDTYFISSAGKPTPGTQGKIKLVKESSLSRQSKDSNPYATLPRASSVISTAEGTTRRTSIHDFLTKDSRLPISVDSPPAAADSNTTAASNVDKVQESRNSKSRSREQQSS
modifications: left off: His tag, N-terminal, kept
- fraction of assigned peaks with significant chemical shift perturbations [1]: < 20%
- overall decrease in signal intensity (median) ([1]; twofold molar excess GIV-CT): ~3 fold
- thermal denaturation ([2]; 5 to 95 °C, 1 °C min^−1, ellipticity at 222 nm, PBS pH 7.0): no cooperative transition
- secondary structure by circular dichroism ([2]; […] in PBS pH 7.0, 0.2 mM DTT, 25 °C): little, if any, secondary structure

B2: A2bR: human GPCR A2b receptor expressed in yeast (protein, UniProt P29275 1-332, looked up)
Adenosine receptor A2b: MLLETQDALYVALELVIAALSVAGNVLVCAAVGTANTLQTPTNYFLVSLAAADVAVGLFAIPFAITISLGFCTDFYGCLFLACFVLVLTQSSIFSLLAVAVDRYLAICVPLRYKSLVTGTRARGVIAVLWVLAFGIGLTPFLGWNSKDSATNNCTEPWDGTTNESCCLVKCLFENVVPMSYMVYFNFFGCVLPPLLIMLVIYIKIFLVACRQLQRTELMDHSRTTLQREIHAAKSLAMIVGIFALCWLPVHAVNCVTLFQPAQGKNKPKWAMNMAILLSHANSVVNPIVYAYRNRDFRYTFHKIISRYLLCQADVKSGNGQAGVQPALGVGL
- activation of Gαi3 WT and Gαi3 N256E [3]: equally
- activation of Gαi3 ΔC9 [3]: completely blunted
